From PMC10933773, “Phosphorylation by ATR triggers FANCD2 chromatin loading and activates the Fanconi anemia pathway”

Assays:
Details in all cases: protein: recombinant;recombinant; tags: FLAG-HA;His; copies: 1;1; label: radiolabelled; fork: 29 bp duplex (S3[1-29] with S4[22-50]), unpaired arms 21 nt (3' of S3) and 21 nt (5' of S4)
FANCD2-10D;FANCI = FANCD2-10D;FANCI (human?;human?, UniProt Q9BXW9;Q9NVI1 1-1451;1-1328, S64D;S178D;S319D;T596D;T608D;S705D;S1257D;S1401D;S1404D;S1418D|); assay: EMSA; stronger than WT and 10A; 25 mM Tris-HCl pH 7.5, 100 mM NaCl, 1 mM EDTA, 6% glycerol, 1 mM DTT, 1 nM DNA, room temperature 60-90 min; 4% PAGE 0.4x TBE at 4 C
Sequence of FANCD2-10D;FANCI (Q9BXW9 whole entry S64D/S178D/S319D/T596D/T608D/S705D/S1257D/S1401D/S1404D/S1418D, chain 1 of 2): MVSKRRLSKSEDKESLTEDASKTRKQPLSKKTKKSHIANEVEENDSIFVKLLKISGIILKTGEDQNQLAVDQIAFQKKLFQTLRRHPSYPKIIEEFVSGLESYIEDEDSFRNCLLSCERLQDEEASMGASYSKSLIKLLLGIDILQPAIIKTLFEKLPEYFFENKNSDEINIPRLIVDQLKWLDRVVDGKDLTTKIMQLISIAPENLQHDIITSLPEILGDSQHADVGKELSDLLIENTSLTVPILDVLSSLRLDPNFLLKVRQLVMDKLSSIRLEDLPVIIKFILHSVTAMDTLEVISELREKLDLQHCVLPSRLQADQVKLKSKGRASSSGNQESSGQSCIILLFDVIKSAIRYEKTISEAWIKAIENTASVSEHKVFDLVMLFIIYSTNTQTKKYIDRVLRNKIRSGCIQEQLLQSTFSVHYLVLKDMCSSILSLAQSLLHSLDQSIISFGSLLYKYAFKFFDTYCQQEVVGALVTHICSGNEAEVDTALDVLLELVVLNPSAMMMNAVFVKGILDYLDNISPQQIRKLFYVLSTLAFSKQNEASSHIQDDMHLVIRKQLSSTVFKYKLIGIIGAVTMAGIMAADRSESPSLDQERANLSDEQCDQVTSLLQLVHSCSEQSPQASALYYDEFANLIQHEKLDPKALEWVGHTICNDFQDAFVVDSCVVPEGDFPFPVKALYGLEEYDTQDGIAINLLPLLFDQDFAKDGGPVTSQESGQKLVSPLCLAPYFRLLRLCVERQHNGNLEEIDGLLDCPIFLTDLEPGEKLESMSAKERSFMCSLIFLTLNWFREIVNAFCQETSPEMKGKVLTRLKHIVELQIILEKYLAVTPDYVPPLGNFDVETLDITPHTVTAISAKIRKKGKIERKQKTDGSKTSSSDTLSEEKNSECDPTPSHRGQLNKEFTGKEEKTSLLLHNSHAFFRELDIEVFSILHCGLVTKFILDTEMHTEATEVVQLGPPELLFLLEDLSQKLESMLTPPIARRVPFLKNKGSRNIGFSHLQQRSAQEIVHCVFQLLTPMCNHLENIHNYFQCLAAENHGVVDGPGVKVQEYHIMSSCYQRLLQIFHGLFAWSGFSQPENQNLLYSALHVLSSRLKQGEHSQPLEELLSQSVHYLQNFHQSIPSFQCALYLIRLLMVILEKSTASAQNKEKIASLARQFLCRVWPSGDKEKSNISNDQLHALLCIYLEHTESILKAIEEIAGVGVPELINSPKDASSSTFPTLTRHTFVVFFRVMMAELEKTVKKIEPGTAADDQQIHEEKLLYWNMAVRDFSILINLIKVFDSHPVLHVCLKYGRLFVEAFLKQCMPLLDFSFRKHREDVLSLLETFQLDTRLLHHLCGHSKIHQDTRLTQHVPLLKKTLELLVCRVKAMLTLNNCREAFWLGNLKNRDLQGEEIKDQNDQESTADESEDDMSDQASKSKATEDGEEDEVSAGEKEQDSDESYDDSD
Sequence of FANCD2-10D;FANCI (Q9NVI1 whole entry, chain 2 of 2): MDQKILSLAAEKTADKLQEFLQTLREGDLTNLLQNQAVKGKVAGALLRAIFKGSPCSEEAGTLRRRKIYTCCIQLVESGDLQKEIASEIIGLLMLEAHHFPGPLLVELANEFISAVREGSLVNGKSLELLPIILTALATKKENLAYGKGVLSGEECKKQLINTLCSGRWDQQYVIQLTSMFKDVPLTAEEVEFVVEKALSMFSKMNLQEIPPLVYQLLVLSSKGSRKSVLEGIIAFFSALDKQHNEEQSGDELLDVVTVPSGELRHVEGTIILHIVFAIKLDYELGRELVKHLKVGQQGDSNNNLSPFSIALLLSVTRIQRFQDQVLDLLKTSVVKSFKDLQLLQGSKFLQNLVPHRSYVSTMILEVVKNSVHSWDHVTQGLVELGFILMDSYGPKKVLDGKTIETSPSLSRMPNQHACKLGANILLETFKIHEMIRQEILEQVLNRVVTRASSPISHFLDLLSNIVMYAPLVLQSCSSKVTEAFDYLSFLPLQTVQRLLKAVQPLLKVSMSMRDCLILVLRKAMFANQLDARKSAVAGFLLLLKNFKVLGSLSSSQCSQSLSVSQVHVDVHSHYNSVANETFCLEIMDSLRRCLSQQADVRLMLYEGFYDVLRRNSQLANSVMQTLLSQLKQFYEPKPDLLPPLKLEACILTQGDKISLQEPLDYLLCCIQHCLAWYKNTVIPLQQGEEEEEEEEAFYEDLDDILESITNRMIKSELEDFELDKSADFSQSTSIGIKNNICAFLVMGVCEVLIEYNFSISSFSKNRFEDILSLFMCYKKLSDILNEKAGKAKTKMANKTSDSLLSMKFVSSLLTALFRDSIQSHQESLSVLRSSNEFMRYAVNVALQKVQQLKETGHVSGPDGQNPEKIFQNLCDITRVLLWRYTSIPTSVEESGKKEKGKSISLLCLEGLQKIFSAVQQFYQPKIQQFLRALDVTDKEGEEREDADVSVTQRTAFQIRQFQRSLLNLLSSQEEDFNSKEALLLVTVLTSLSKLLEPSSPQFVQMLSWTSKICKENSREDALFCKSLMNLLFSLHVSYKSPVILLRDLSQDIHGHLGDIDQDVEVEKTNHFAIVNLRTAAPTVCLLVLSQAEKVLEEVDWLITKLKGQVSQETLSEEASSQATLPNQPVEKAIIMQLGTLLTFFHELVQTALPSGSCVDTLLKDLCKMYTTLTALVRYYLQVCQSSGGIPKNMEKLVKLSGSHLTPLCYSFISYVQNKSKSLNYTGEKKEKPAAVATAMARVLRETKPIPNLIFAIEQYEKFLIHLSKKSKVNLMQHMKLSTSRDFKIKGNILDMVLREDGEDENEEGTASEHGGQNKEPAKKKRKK

FANCD2-10A;FANCI = FANCD2-10A;FANCI (human?;human?, UniProt Q9BXW9;Q9NVI1 1-1451;1-1328, S64A;S178A;S319A;T596A;T608A;S705A;S1257A;S1401A;S1404A;S1418A|); assay: EMSA; 25 mM Tris-HCl pH 7.5, 100 mM NaCl, 1 mM EDTA, 6% glycerol, 1 mM DTT, 1 nM DNA, room temperature 60-90 min; 4% PAGE 0.4x TBE at 4 C
Sequence of FANCD2-10A;FANCI (Q9BXW9 whole entry S64A/S178A/S319A/T596A/T608A/S705A/S1257A/S1401A/S1404A/S1418A, chain 1 of 2): as the sequence (Q9BXW9 whole entry S64D/S178D/S319D/T596D/T608D/S705D/S1257D/S1401D/S1404D/S1418D, chain 1 of 2) above, with D64A, D178A, D319A, D596A, D608A, D705A, D1257A, D1401A, D1404A, D1418A counted along it
Sequence of FANCD2-10A;FANCI (Q9NVI1 whole entry, chain 2 of 2): as the sequence (Q9NVI1 whole entry, chain 2 of 2) above

FANCD2 WT;FANCI = FANCD2 WT;FANCI (human?;human?, UniProt Q9BXW9;Q9NVI1 1-1451;1-1328, |); assay: as above
Sequence of FANCD2 WT;FANCI (Q9BXW9 whole entry, chain 1 of 2): as the sequence (Q9BXW9 whole entry S64D/S178D/S319D/T596D/T608D/S705D/S1257D/S1401D/S1404D/S1418D, chain 1 of 2) above, with D64S, D178S, D319S, D596T, D608T, D705S, D1257S, D1401S, D1404S, D1418S counted along it
Sequence of FANCD2 WT;FANCI (Q9NVI1 whole entry, chain 2 of 2): as the sequence (Q9NVI1 whole entry, chain 2 of 2) above

Measured: binding result

B1: ICL14 Y-shaped DNA (stalled fork mimic) (dsDNA)
DNA 1: CATTGTGAATTCGCCTCTCTGTCTAGCCGAAGCTCGAAACGATCTTGTGC
DNA 2: GTCCATCAAAGTTCGACTGTGCGGCTAGACAGAGAGGCGAATTCACAATG
binds: all assays above
